Experimental findings from patent US20230257479A1 (Genmab, published 2023) are described below.

Positions count from the first letter of the chain named. In names and notes the source's numbering stands.

The target of assay [1] is T1, full length human 5T4 (SEQ ID NO: 1) on cells (human, UniProt Q13641 32-420).
T1 construct: Uniprot Q13641; residues 1-31 are the signal peptide; Used both for transfected HEK-293 cells and for 5T4-expressing human tumor cell lines
T1 sequence: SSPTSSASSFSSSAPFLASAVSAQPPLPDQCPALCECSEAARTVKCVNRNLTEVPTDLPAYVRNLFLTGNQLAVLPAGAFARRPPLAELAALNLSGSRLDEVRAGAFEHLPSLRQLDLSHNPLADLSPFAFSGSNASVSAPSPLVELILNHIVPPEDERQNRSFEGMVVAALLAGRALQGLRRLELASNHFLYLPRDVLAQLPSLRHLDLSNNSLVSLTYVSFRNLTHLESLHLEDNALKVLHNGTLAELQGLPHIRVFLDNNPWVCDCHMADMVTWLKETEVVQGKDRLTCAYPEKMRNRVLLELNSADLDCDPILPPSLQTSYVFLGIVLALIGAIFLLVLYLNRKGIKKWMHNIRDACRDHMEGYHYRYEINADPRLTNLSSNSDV
Kind of assay: flow cytometry, HEK-293 cells transfected with human 5T4, PE secondary [II)A].

In assay [2] the target is T1, full length human 5T4 (SEQ ID NO: 1) on …. Kind of assay: flow cytometry, HeLa cells, FITC secondary [I)A].
Assay [3] has the same target. Kind of assay: flow cytometry, SCC-9 cells, R-PE secondary.
Assay [4] shares this target. Kind of assay: flow cytometry, SK-GT-4 cells, R-PE secondary.
Assay [5] addresses T2, full length cynomolgus monkey 5T4 on transfected HEK-293 cells (cynomolgus monkey, UniProt Q4R8Y9 35-420).
T2 construct: Uniprot Q4R8Y9; residues 1-34 are the signal peptide; also called cynomolgus 5T4
T2 sequence: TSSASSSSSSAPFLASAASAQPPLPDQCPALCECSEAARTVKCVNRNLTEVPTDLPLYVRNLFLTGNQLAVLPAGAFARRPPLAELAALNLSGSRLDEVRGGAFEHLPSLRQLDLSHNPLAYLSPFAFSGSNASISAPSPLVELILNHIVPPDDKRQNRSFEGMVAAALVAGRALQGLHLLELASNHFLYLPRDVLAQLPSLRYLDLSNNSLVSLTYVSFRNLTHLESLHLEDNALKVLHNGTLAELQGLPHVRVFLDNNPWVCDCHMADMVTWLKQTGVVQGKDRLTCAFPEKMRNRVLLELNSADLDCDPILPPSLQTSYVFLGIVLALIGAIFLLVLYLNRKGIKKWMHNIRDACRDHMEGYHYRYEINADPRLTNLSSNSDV
Kind of assay: flow cytometry, HEK-293 cells transfected with cynomolgus monkey 5T4, FITC secondary [I)A].

The target in assay [6] is T1, full length human 5T4 (SEQ ID NO: 1) on …. Kind of assay: flow cytometry, NCI-H292 cells, R-PE secondary.
For assay [7] the target is unchanged. Kind of assay: flow cytometry, OE33 cells, R-PE secondary.
The target is the same in assay [8]. Kind of assay: flow cytometry, MDA-MB-231 cells, FITC secondary [I)A].
The target is the same in assay [9]. Kind of assay: flow cytometry, MDA-MB-231 cells, PE secondary [III)A].
Assay [10] shares this target. Kind of assay: flow cytometry, FaDu cells, R-PE secondary.
For assay [11], the target named is T2, full length cynomolgus monkey 5T4 on …. Kind of assay: flow cytometry, HEK-293 cells transfected with cynomolgus monkey 5T4, PE secondary [II)A].
Assay [12] concerns the target T1, full length human 5T4 (SEQ ID NO: 1) on …. Kind of assay: flow cytometry, HeLa cells, PE secondary [II)A].
The target of assay [13] is T3, human 5T4ECDHis (mature protein of SEQ ID NO: 99) (human, UniProt Q13641 32-355).
T3 construct: ECD of human 5T4 (aa 1-355 of Uniprot Q13641) with C-terminal His tag; residues 1-31 are the signal peptide; also called ECD of human 5T4 with a C-terminal His tag
T3 sequence: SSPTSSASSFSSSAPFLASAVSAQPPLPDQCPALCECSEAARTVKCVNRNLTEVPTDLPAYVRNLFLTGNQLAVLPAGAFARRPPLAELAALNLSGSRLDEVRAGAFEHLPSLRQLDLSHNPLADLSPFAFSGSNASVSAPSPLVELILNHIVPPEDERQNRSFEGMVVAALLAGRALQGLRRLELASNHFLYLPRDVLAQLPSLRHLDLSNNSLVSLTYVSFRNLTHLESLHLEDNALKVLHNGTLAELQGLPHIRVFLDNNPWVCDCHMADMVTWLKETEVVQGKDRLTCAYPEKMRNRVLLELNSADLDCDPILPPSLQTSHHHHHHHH
Kind of assay: BLI cross-block; competitor (immobilised): IgG1-5T4-A1-F405L.

Assay [14] concerns the target T3, human 5T4ECDHis (mature protein of SEQ …). Kind of assay: BLI cross-block; competitor (immobilised): IgG1-5T4-106-FEAR.
The target is the same in assay [15]. Kind of assay: BLI cross-block; competitor (immobilised): IgG1-5T4-085-FEAR.
Assay [16] shares this target. Kind of assay: BLI cross-block; competitor (immobilised): IgG1-5T4-A3-F405L.
For assay [17] the target is unchanged. Kind of assay: BLI cross-block; competitor (immobilised): IgG1-5T4-127-FEAR.
For assay [18] the target is unchanged. Kind of assay: BLI cross-block; competitor (immobilised): IgG1-5T4-207-FEAR.
The target is the same in assay [19]. Kind of assay: BLI cross-block; competitor (immobilised): IgG1-5T4-076-FEAR.
Assay [20] concerns the target T2, full length cynomolgus monkey 5T4 on …. Kind of assay: flow cytometry, HEK-293 cells transfected with cynomolgus monkey 5T4, PE secondary [II)D].
In assay [21] the target is T1, full length human 5T4 (SEQ ID NO: 1) on …. Kind of assay: flow cytometry, HEK-293 cells transfected with human 5T4, PE secondary [II)D].
Assay [22] addresses T3, human 5T4ECDHis (mature protein of SEQ …). Kind of assay: BLI cross-block; competitor (immobilised): IgG1-5T4-226-FEAR.
Assay [23] shares this target. Kind of assay: BLI, antibody on anti-human IgG Fc Capture biosensor, antigen in solution.
Assay [24] shares this target. Kind of assay: BLI cross-block; competitor (immobilised): IgG1-5T4-059-FEAR.
The target is the same in assay [25]. Kind of assay: BLI cross-block; competitor (immobilised): IgG1-5T4-H8-FEAR.
In assay [26] the target is T1, full length human 5T4 (SEQ ID NO: 1) on …. Kind of assay: flow cytometry, HEK-293 cells transfected with human 5T4, PE secondary [II)F].
Assay [27] has as its target T2, full length cynomolgus monkey 5T4 on …. Kind of assay: flow cytometry, HEK-293 cells transfected with cynomolgus monkey 5T4, PE secondary [II)F].
The target is the same in assay [28]. Kind of assay: flow cytometry, HEK-293 cells transfected with cynomolgus monkey 5T4, FITC secondary [I)D].
For assay [29], the target named is T1, full length human 5T4 (SEQ ID NO: 1) on …. Kind of assay: flow cytometry, HEK-293 cells transfected with human 5T4, FITC secondary [I)D].

B1: bsIgG1-huCD3-H101G-FEALx5T4-207-FEAR (bispecific antibody)
heavy 1: not shown
light 1: not shown
heavy 2: QVQLQQWGAGLLKPSETLSLTCAVYGGSFSGYYWTWIRQPPGKGLEWIGEIDHSESTNYNPSLKSRVTISVDTSKNQFSLKLSSVTAADTAVYYCAGWFGELYHYYYGMDVWGQGTTVTVSSASTKGPSVFPLAPSSKSTSGGTAALGCLVKDYFPEPVTVSWNSGALTSGVHTFPAVLQSSGLYSLSSVVTVPSSSLGTQTYICNVNHKPSNTKVDKRVEPKSCDKTHTCPPCPAPEFEGGPSVFLFPPKPKDTLMISRTPEVTCVVVAVSHEDPEVKFNWYVDGVEVHNAKTKPREEQYNSTYRVVSVLTVLHQDWLNGKEYKCKVSNKALPAPIEKTISKAKGQPREPQVYTLPPSREEMTKNQVSLTCLVKGFYPSDIAVEWESNGQPENNYKTTPPVLDSDGSFFLYSRLTVDKSRWQQGNVFSCSVMHEALHNHYTQKSLSLSPG
light 2: not shown
notes: also called CD3x5T4 bispecific antibody
In the case of B1, the “EC50 (read off the curve)” value in assay [1] was roughly 0.06 µg/mL; in assay [2], roughly 0.04 µg/mL; in [3], roughly 0.08 µg/mL; in assay [4] it was roughly 0.08 µg/mL; in assay [5], roughly 0.1 µg/mL; in assay [6], roughly 0.03 µg/mL. For the same molecule, the “EC50 (read off the curve)” value in assay [7] is roughly 0.08 µg/mL; in [8], roughly 0.1 µg/mL; in [9], roughly 0.04 µg/mL; in assay [10], roughly 0.06 µg/mL; in [11] it was roughly 0.03 µg/mL; in [12] it was roughly 0.04 µg/mL.

B2: IgG1-5T4-106-FEAR (antibody, V domains shown)
VH: EVQLVQSGAEVKKPGESLKISCKGSGYRFTSYWIGWVRQMPGKGLEWMGIIYPGDSDARYSPSFQGQVTISADKSISTAYLQWSSLKASDTGMYYCARSVLFDYWGQGTLVTVSS
VL: AIQLTQSPSSLSASVGDRVTITCRASQGISSALAWYQQKPGKAPKLLIYDVSNLESGVPSRFSGSGSGTDFTLTISSLQPEDFATYYCQQFNSYPHTFGQGTKLEIK
notes: Monospecific, bivalent human IgG1 kappa with L234F, L235E, D265A, K409R (FEAR)
With B2, the corrected association response in assay [13] is 0.85 nm; in [14], -0.02 nm; in assay [15], -0.01 nm; in assay [16], 0.57 nm; in assay [17] it was -0.01 nm; in [18] it was -0.01 nm. Also, the corrected association response in assay [19] is -0.02 nm; in assay [22] it was -0.02 nm; in assay [24], 0.01 nm; in assay [25], -0.01 nm. Moreover, the binding result in assay [20] is “binds”. Besides, in [21], the “EC50 (read off the curve)” value is roughly 0.01 µg/mL. In assay [23], this molecule showed a dissociation constant Kd of 5.5 nM. Further, the koff in assay [23] was 0.0012 s⁻¹. The molecule also displayed a kon in assay [23] of 210000 M⁻¹ s⁻¹.

B3: bsIgG1-huCD3-H101G-FEALx5T4-085-FEAR (bispecific antibody)
heavy: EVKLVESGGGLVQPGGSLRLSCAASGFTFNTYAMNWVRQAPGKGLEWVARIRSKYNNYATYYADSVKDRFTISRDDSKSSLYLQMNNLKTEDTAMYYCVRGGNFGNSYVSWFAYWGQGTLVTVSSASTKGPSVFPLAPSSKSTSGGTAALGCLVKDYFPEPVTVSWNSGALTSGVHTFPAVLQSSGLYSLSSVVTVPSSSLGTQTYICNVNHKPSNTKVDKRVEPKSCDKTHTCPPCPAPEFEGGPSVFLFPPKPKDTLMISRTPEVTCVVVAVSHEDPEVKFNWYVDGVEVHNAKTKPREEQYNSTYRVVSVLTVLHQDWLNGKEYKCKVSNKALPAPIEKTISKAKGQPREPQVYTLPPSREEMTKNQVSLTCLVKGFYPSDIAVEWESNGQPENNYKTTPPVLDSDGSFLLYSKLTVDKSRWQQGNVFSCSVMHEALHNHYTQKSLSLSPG
light: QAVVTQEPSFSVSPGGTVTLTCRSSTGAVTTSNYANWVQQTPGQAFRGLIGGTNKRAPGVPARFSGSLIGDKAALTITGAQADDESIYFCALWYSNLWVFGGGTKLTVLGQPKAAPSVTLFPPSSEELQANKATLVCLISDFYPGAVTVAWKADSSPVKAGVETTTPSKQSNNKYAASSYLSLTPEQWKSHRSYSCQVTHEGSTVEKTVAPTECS
VH: EVQLLESGGGLVQPGGSLRLSCAASGFTFSSYAMSWVRQAPGKGLEWVSAISGSGGSTYNADSVKGRFTIFRDNSKNTLYLHMNSLRAEDTAVYYCARDPGYNNVEYLDHWGQGTLVTVSS
VL: B2 VL with V51A, N53S, H96L, Q100G, L104V
notes: Fab-arm exchange product
Take B3: the entries for the half-maximal effective concentration (EC50 (read off the curve)) in [26] and in [27] were roughly 0.5 µg/mL and roughly 0.4 µg/mL, respectively.

B4: bsIgG1-huCD3-H101G-FEALx5T4-H8-FEAR (bispecific antibody)
heavy: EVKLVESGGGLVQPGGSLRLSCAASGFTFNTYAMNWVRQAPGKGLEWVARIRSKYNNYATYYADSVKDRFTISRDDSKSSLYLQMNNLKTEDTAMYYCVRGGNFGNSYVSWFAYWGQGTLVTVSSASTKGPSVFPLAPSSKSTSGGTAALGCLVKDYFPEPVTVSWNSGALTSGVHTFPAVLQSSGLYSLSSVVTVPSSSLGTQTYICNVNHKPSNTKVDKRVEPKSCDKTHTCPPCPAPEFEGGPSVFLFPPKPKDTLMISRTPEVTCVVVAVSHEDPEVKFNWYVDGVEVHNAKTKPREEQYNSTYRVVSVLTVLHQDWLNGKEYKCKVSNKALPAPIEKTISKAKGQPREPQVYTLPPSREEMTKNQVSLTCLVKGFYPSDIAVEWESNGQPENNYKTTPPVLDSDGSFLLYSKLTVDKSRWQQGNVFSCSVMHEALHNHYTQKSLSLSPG
light: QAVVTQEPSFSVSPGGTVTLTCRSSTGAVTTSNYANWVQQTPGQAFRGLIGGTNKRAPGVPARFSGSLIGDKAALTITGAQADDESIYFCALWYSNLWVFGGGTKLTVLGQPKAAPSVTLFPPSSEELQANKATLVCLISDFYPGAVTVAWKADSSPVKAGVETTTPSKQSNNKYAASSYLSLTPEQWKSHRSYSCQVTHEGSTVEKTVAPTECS
VH: EVQLQQSGPDLVKPGASVKISCKASGYSFTGYYMHWVKQSHGKSLEWIGRINPNNGVTLYNQKFKDKAILTVDKSSTTAYMELRSLTSEDSAVYYCARSTMITNYVMDYWGQVTSVTVSS
VL: SIVMTQTPTFLLVSAGDRVTITCKASQSVSNDVAWYQQKPGQSPTLLISYTSSRYAGVPDRFIGSGYGTDFTFTISTLQAEDLAVYFCQQDYNSPPTFGGGTKLEIK
notes: Fab-arm exchange product
As to B4, the “EC50 (read off the curve)” value in assay [28] was roughly 0.1 µg/mL. Besides, the binding result in [29] was “binds”.
